Changes are numbered by the printed parent chain. Each block holds one binder with its values, some of them ahead of it.
Molecular target: T1, human PDL1 protein (human, UniProt Q9NZQ7 19-238, limits assumed)
T1 construct: Plate-coated protein
Test: titration ELISA, plates coated with human PD-L1, soluble monomeric decoy, anti-His tag detection

T1 sequence (Q9NZQ7 19-238 limits assumed): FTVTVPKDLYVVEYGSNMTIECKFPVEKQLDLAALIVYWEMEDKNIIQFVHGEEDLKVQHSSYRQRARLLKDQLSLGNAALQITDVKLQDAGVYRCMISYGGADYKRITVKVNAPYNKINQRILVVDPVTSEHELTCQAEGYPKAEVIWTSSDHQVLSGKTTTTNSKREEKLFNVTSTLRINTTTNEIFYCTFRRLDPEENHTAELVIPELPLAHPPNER

- fold better binding than the WT PD1 decoy: 10 fold
B1: PD1_4XMUT_M70 (with 6xHis) (receptor)
chain: MASDSPDRPWNPPTFSPALLVVTEGDNATFTCSFSNTSESFVLNWYRMSPSNQDDRLAAFPEDRSQPGQDARFRVTQLPNGRDFHMSVVRARRNDSGTYFCGAISLAPKAKIKESLRAELRVTERRALEHHHHHH
notes: also called soluble monomeric PD1 decoy variant

- fold better binding than the WT PD1 decoy: ~7.5 fold
B2: PD1_6XDM (with 6xHis) (receptor)
chain: B1 chain with D54V, A110W
notes: also called PD-1 decoy variant 6XDM; soluble monomeric PD1 decoy variant

From US20220387555A1 (LUDWIG INSTITUTE FOR CANCER RESEARCH, published 2022)
